{"source": "paper PMC11300964", "about": "“Chaperone BiP controls ER stress sensor Ire1 through interactions with its oligomers” (Life Science Alliance, 2024)", "key": {"[1]": {"target": "the molecule itself", "assay": "native MS; 5 μM Ire1-LD sprayed from 100 mM ammonium acetate at pH 6.8; no substrate peptide"}, "[2]": {"target": "the molecule itself", "assay": "MST; 0.5 μM FITC-labelled Ire1-LD titrated with unlabelled Ire1-LD; HMK buffer with 1 mM TCEP or 5 mM DTT; apparent dimerization constant (dimer to monomers); no substrate peptide"}, "co-sedimentation": {"target": "the molecule itself", "assay": "co-sedimentation"}, "turbidity (OD at 400 nm)": {"target": "the molecule itself", "assay": "turbidity (OD at 400 nm)"}}, "note": "Several values for one entry are separate records, joined by “and”; a condition that tells them apart may be missing. Identical values can stand only once.", "data": [{"protein": "human Ire1α luminal domain (aa 24–449), wild type (domain or fragment, UniProt O75460 24-449, looked up, FITC-labelled for the copy held at fixed concentration in MST and for fluorescence polarisation; unlabelled elsewhere, human Ire1α luminal domain (Ire1-LD), aa 24-449 of UniProt O75460; Cloned into the pET His6 TEV LIC vector (Addgene 29653); 15N- or 13C,15N-labelled for NMR; also called Ire1-LD; WT Ire1-LD; source: E. coli BL21 (DE3), purified (HisTrap HP nickel column, dialysis)) STVTLPETLLFVSTLDGSLHAVSKRTGSIKWTLKEDPVLQVPTHVEEPAFLPDPNDGSLYTLGSKNNEGLTKLPFTIPELVQASPCRSSDGILYMGKKQDIWYVIDLLTGEKQQTLSSAFADSLCPSTSLLYLGRTEYTITMYDTKTRELRWNATYFDYAASLPEDDVDYKMSHFVSNGDGLVVTVDSESGDVLWIQNYASPVVAFYVWQREGLRKVMHINVAVETLRYLTFMSGEVGRITKWKYPFPKETEAKSKLTPTLYVGKYSTSLYASPSMVHEGVAVVPRGSTLPLLEGPQTDGVTIGDKGECVITPSTDVKFDPGLKSKNKLNYLRNYWLLIGHHETPLSASTKMLERFPNNLPKHRENVIPADSEKKSFEEVINLVDQTSENAPTTVSRDVEEKPAHAPARPEAPVDSMLKDMATIIL", "values": [{"measurement": "stoichiometry N", "setting": "[1]", "value": "2 and 4"}, {"measurement": "Kd", "setting": "[2]", "value": "500 ± 170", "unit": "nM"}]}, {"protein": "human Ire1α luminal domain (aa 24–449), 315LL316 to DA variant (domain or fragment, UniProt O75460 24-449, looked up, human Ire1α luminal domain (Ire1-LD), aa 24-449 of UniProt O75460, with LL 315-316 replaced by DA; source: E. coli BL21 (DE3), purified (HisTrap HP nickel column)) STVTLPETLLFVSTLDGSLHAVSKRTGSIKWTLKEDPVLQVPTHVEEPAFLPDPNDGSLYTLGSKNNEGLTKLPFTIPELVQASPCRSSDGILYMGKKQDIWYVIDLLTGEKQQTLSSAFADSLCPSTSLLYLGRTEYTITMYDTKTRELRWNATYFDYAASLPEDDVDYKMSHFVSNGDGLVVTVDSESGDVLWIQNYASPVVAFYVWQREGLRKVMHINVAVETLRYLTFMSGEVGRITKWKYPFPKETEAKSKLTPTLYVGKYSTSLYASPSMVHEGVAVVPRGSTLPDAEGPQTDGVTIGDKGECVITPSTDVKFDPGLKSKNKLNYLRNYWLLIGHHETPLSASTKMLERFPNNLPKHRENVIPADSEKKSFEEVINLVDQTSENAPTTVSRDVEEKPAHAPARPEAPVDSMLKDMATIIL", "values": [{"measurement": "binding result", "setting": "co-sedimentation", "value": "binds"}]}, {"protein": "human Ire1α luminal domain (aa 24–449), 359WLLI362 to GSSG variant (domain or fragment, UniProt O75460 24-449, looked up, human Ire1α luminal domain (Ire1-LD), aa 24-449 of UniProt O75460, with WLLI 359-362 replaced by GSSG at the oligomerisation interface; Methods and one legend print 358WLLI362; also called 358WLLI362 to GSSG; source: E. coli BL21 (DE3), expressed overnight at 20°C, purified (HisTrap HP nickel column)) STVTLPETLLFVSTLDGSLHAVSKRTGSIKWTLKEDPVLQVPTHVEEPAFLPDPNDGSLYTLGSKNNEGLTKLPFTIPELVQASPCRSSDGILYMGKKQDIWYVIDLLTGEKQQTLSSAFADSLCPSTSLLYLGRTEYTITMYDTKTRELRWNATYFDYAASLPEDDVDYKMSHFVSNGDGLVVTVDSESGDVLWIQNYASPVVAFYVWQREGLRKVMHINVAVETLRYLTFMSGEVGRITKWKYPFPKETEAKSKLTPTLYVGKYSTSLYASPSMVHEGVAVVPRGSTLPLLEGPQTDGVTIGDKGECVITPSTDVKFDPGLKSKNKLNYLRNYGSSGGHHETPLSASTKMLERFPNNLPKHRENVIPADSEKKSFEEVINLVDQTSENAPTTVSRDVEEKPAHAPARPEAPVDSMLKDMATIIL", "values": [{"measurement": "binding result", "setting": "turbidity (OD at 400 nm)", "value": "binds"}]}]}
